Laboratory results: patent publication US20260116956A1, “ANTIBODY BASED TREATMENT TO REDUCE GUT BACTERIAL GLYCAN AND ASSOCIATED BACTERIA” (priority 2022, published 2026)
Where two headings read alike, the source gives them in different places.

Key:
[1] = tested on: intestinal permeability of RG strain colonized mice; details: 0.15 mg/ml in drinking water, 10 days
Description: For each group mean+/−standard deviation (SD) (FIG. 9A). […] For the bottom panels, significance was tested by paired t test. *p<0.05 was considered statistically significant.
In vivo assay of intestinal permeability. To assess intestinal permeability, after a 4-hours fasting from food and water, mice were orally gavaged with 4,000-Da fluorescein (FITC)-dextran (FD4) (Sigma-Aldrich, St. Louis, MO) (250 mg/kg body weight) in doses of 200 μl, and blood was collected 3 hours later. The concentration of the FD4 was determined using a fluorimeter with an excitation wavelength of 490 nm and an emission wavelength of 530 nm. To assess concentration, FD4 in serum was then serially diluted to establish a standard curve.
Leaky gut recovery studies. Zonulin antagonist, larazotide acetate (known as AT-1001, or INN-202), was purchased from BOC Sciences, NY. Individual neonatally-colonized littermates from SPF mice, colonized with different RG strains, were retested after FD4 challenge, and those with abnormal levels then each received 0.15 mg/ml of the zonulin antagonist in drinking water, which was refreshed every day, for 10 consecutive days. After 24 hours rest, intestinal permeability was then retested.

[2] = tested on: purified LG from RG2 (RG2-LG); assay: Immunoblot, purified lipoglycan from RG2 strain; assay type: binding, Ruminococcus gnavus
Description: (§1) LPS from a Pseudomonas species.
(§2) In this assay, LG or nuclease-treated RG strain extracts were precoated overnight onto the well, then after blocking with bovine serum albumin, the mAbs, or isotype control at 1 μg/ml were incubated for 4 hours, then washed and developed (see below-described methods) (FIG. 15A). Immunoblot with mAb 33.2.3 (FIG. 15B) and immunoblot with 34.2.2 mAb (FIG. 15C), detect antigenically related LG oligobands in extracts of R. gnavus strains isolated from active Lupus nephritis strains. In each panel is shown samples of purified lipoglycan from the Lupus S47-18 strain, and the RG2 strain of R. gnavus. At left, extracts of whole bacteria are shown for the RG1 strain (from a healthy donor), and the Lupus-derived strains; S107-48, S107-86, S47-18, and for the RG2 strain.
(§3) Immunoblotting. Electrophoretic separation used Bis-Tris mini gels (Novex, Thermo Fisher) with bacterial extracts loaded at the same concentration, then transferred to membranes, which were incubated with sera diluted at 1:100, and incubated overnight at 4° C. For detection, anti-human IgG biotin conjugated (Jackson ImmunoResearch Labs, USA) was added and developed by IRDye® 800CW Streptavidin (LI-COR®).

[3] = tested on: bacterial extract of the RG2 strain (CC55_001C); assay: Direct binding ELISA, RG2 bacterial extract; set-up: species or system Ruminococcus gnavus; details: extract coated on ELISA plate
Description: as §2
(§4) Assays of antigen-reactive IgG antibodies. A custom multiplex bead-based array for the Magpix platform (Luminex, Austin TX) was created by coupling a variety of highly purified thymic native DNAs, purified cell wall lipoglycan (LG) from the RG2 strain (i.e., IgG anti-RG2 LG (formerly termed LG3) (Azzouz et al., 2019)), and the Lupus RG strain S47-18 (i.e., IgG anti-S47-18 strain LG), recombinant S. aureus proteins, endotoxins, and other bacterial antigens and control ligands, to individual microspheres, adapting the manufacturer's protocol and previous reports (Pelzek et al., 2017; Pelzek et al., 2018b; Radke et al., 2018). For antigen-reactive IgG detection, 1,000 microspheres per analyte per well were premixed, sonicated, and then diluted with addition of 100 μl of serum, as indicated. For ELISA bound IgG antibodies were detected with Fc-gamma-specific anti-murine IgG HRP (eBioscience, San Diego CA), and for multiplex bead-based assay with anti-mouse IgG (Fc-specific) F(ab′)2 PE (Jackson ImmunoResearch, West Grove PA). Data were acquired on a Magpix instrument (Luminex) and reported as mean fluorescence intensity (MFI) values, as previously described (Pelzek et al., 2017; Pelzek et al., 2018a; Radke et al., 2018). Plasma zonulin were quantitated with a commercial ELISA Kit. (MyBioSource, San Diego CA.).
(§5) Direct binding ELISA. To detect the reactivity of the murine monoclonal antibodies (mAb) […] and mAb 34.2.2 with the different RG strains, the ELISA plates were coated with the bacterial extracts from RG2, S47-18, S107-48, S107-86, RG1 as well as with the purified lipoglycan from the strains RG2 and S47-18. Next, the murine monoclonal antibodies were added at two concentrations (at 100 ng/ml and 25 ng/ml) in duplicate, incubated for 2 h at RT. Binding was detected with goat anti mouse IgG HRP conjugated at 1:10,000 (Jackson ImmunoResearch), then TMB substrate was added to develop the plate.

[4] = tested on: extract of the RG2 strain; assay: Immunoblot, RG2 extract; assay type: binding, Ruminococcus gnavus
Description: as §1, §2
(§6) To generate RG-specific monoclonal antibodies, 10 BALB/c mice were immunized with extract of the (CC55_001C), termed RG2 strain, emulsified in complete Freund's adjuvant and then boosted with lipoglycan (LG) purified from the Lupus S47-18 strain emulsified in incomplete Freund's adjuvant. The spleen from the mouse with the strongest post-immunization was fused with the NS-1 myeloma cells.
(§7) Immunoblotting. […]

[5] = tested on: purified LG from the RG2 strain; assay: Direct binding ELISA, purified lipoglycan from RG2 strain; set-up: species or system Ruminococcus gnavus; details: antigen coated on ELISA plate
Description: as §2, §4, §5

[6] = tested on: purified LG from the S47-18 strain; assay: Immunoblot, purified lipoglycan from S47-18 strain; assay type: binding, Ruminococcus gnavus
Description: as §2, §3

[7] = tested on: extract of Lupus RG strain S47-18; assay: Immunoblot, S47-18 extract; assay type: binding, Ruminococcus gnavus
Description: as §1, §2, §6, §7

[8] = tested on: bacterial extract of Lupus strain S107-48; assay: Direct binding ELISA, S107-48 bacterial extract; set-up: species or system Ruminococcus gnavus; details: extract coated on ELISA plate
Description: as §2, with “At left, extracts of whole bacteria are shown for the RG1 strain (from a healthy donor), and the Lupus-derived strains; S107-48, S107-86, S47-18, and for the RG2 strain.” left out
(§8) Assays of antigen-reactive IgG antibodies. […] For ELISA bound IgG antibodies were detected with Fc-gamma-specific anti-murine IgG HRP (eBioscience, San Diego CA), and for multiplex bead-based assay with anti-mouse IgG (Fc-specific) F(ab′)2 PE (Jackson ImmunoResearch, West Grove PA). Data were acquired on a Magpix instrument (Luminex) and reported as mean fluorescence intensity (MFI) values, as previously described (Pelzek et al., 2017; Pelzek et al., 2018a; Radke et al., 2018). Plasma zonulin were quantitated with a commercial ELISA Kit. […]
(§9) Direct binding ELISA. […] Binding was detected with goat anti mouse IgG HRP conjugated at 1:10,000 (Jackson ImmunoResearch), then TMB substrate was added to develop the plate.

[9] = tested on: extract of the RG1 type strain (ATCC29149); assay: Direct binding ELISA, RG1 bacterial extract; set-up: species or system Ruminococcus gnavus; details: extract coated on ELISA plate; strain lacks the lipoglycan
Description: as §2, with “At left, extracts of whole bacteria are shown for the RG1 strain (from a healthy donor), and the Lupus-derived strains; S107-48, S107-86, S47-18, and for the RG2 strain.” left out
as §8, §9

[10] = tested on: purified LG from the S47-18 strain; assay: Direct binding ELISA, purified lipoglycan from S47-18 strain; set-up: species or system Ruminococcus gnavus; details: antigen coated on ELISA plate
Description: as §2, with “At left, extracts of whole bacteria are shown for the RG1 strain (from a healthy donor), and the Lupus-derived strains; S107-48, S107-86, S47-18, and for the RG2 strain.” left out
as §8, §9

[11] = tested on: extract of RG1 strain; assay: Immunoblot, RG1 extract; assay type: binding, Ruminococcus gnavus; details: strain from a healthy donor, lacks the lipoglycan
Description: as §1, §2, §6, §7

[12] = tested on: bacterial extract of Lupus strain S47-18; assay: Direct binding ELISA, S47-18 bacterial extract; set-up: species or system Ruminococcus gnavus; details: extract coated on ELISA plate
Description: as §2, §4, §5

[13] = tested on: extract of Lupus RG strain S107-86; assay: Immunoblot, S107-86 extract; assay type: binding, Ruminococcus gnavus
Description: as §2, §3

[14] = tested on: extract of Lupus RG strain S107-48; assay: Immunoblot, S107-48 extract; assay type: binding, Ruminococcus gnavus
Description: as §1, §2, §6, §7

[15] = tested on: bacterial extract of Lupus strain S107-86; assay: Direct binding ELISA, S107-86 bacterial extract; set-up: species or system Ruminococcus gnavus; details: extract coated on ELISA plate
Description: as §2, §4, §5

Molecule | Immunoblot reactivity with purified LG from RG2 strain [2] | ELISA reactivity with extract of RG2 strain [3] | Immunoblot reactivity with LG oligobands in RG2 extract [4] | ELISA reactivity with purified LG from RG2 strain [5] | Immunoblot reactivity with purified LG from S47-18 strain [6] | Immunoblot reactivity with LG oligobands in S47-18 extract [7] | ELISA reactivity with extract of Lupus strain S107-48 [8] | ELISA reactivity with RG1 type strain extract [9] | ELISA reactivity with purified LG from S47-18 strain [10] | Immunoblot reactivity with RG1 extract [11] | ELISA reactivity with extract of Lupus strain S47-18 [12] | Immunoblot reactivity with LG oligobands in S107-86 extract [13] | Immunoblot reactivity with LG oligobands in S107-48 extract [14] | ELISA reactivity with extract of Lupus strain S107-86 [15] | other results
larazotide acetate | – | – | – | – | – | – | – | – | – | – | – | – | – | – | Gut barrier function (plasma FD4 after challenge), before vs after treatment ([1]; Lupus S47-18 strain colonized mice, p=0.01): normalized; Gut barrier function (plasma FD4 after challenge), before vs after treatment ([1]; Lupus S107-48 strain colonized mice, p=0.01): normalized; Gut barrier function (plasma FD4 after challenge), before vs after treatment ([1]; RG2 strain colonized mice, p=0.03): normalized
mAb 33.2.2: murine monoclonal anti-R. gnavus lipoglycan antibody; VH SEQ ID NO: 4, VL SEQ ID NO: 9 (antibody, V domains shown) VH: EVQLQESGPSLVKPSQTLSLTCSVTGDSITSGYWNWIRKFPGNKLEYLGYINYSGSTYYNPSLRSRISITRDTSKNQYYLQLNAVTTEDTATYYCARYYYHDDSYAMDNWGQGTSVTVSS VL: DIQMNQSPSSLSASLGDTITITCHASQNINVWLSWFQQKPGNIPKLLIYKASNLHTGVPSRFSGTGSGTGFTLTISSLQPEDIATYYCQQGQSYPLTFGAGTKLELK | bound | reactive | recognized oligoband antigen | strongly react | bound | recognized oligoband antigen | reactive | non-reactive | strongly react | no reactivity | reactive | recognized oligoband antigen | recognized oligoband antigen | reactive | ELISA reactivity with extract of RG2 strain ([3]; listed as 33.2.3): reactivity; ELISA reactivity with purified LG from RG2 strain ([5]; listed as 33.2.3): reactivity; ELISA reactivity with extract of Lupus strain S47-18 ([12]; listed as 33.2.3): reactivity; ELISA reactivity with extract of Lupus strain S107-86 ([15]; listed as 33.2.3): reactivity
mAb 34.2.2: murine monoclonal anti-R. gnavus lipoglycan antibody; VH SEQ ID NO: 13, VL SEQ ID NO: 15 (antibody, V domains shown) VH: EVQLQESGPSLVKPSQTLSLTCSVTGDSITSGYWNWIRKFPGNKLEYMGYINYSGTTYYNPSLKSRISITRDTSKNQYYLQLNSVTTEDTATYYCARYYYYDSSYAMDYWGQGTSVTVSS VL: DIQMNQSPSSLSASLGDTITITCHASQNINVWLSWFQQKPGNIPKLLIYKASNLHTGVPSRFSGSGSGTGFTLTISSLQPEDIATYYCQQGQSYPLTFGAGTKLELK | bound | reactive | recognized oligoband antigen | strongly react | bound | recognized oligoband antigen | reactive | non-reactive | strongly react | no reactivity | reactive | recognized oligoband antigen | recognized oligoband antigen | reactive | ELISA reactivity with extract of RG2 strain ([3]; listed as 34.2.2): reactivity; ELISA reactivity with purified LG from RG2 strain ([5]; listed as 34.2.2): reactivity; ELISA reactivity with extract of Lupus strain S47-18 ([12]; listed as 34.2.2): reactivity; ELISA reactivity with extract of Lupus strain S107-86 ([15]; listed as 34.2.2): reactivity
